Results published in patent US10808017B2, “Ubiquitin variants and uses therof as 53BP1 inhibitors” (The Governing Council of the University of Toronto, priority 2016, dated 2020).
Several values for one entry are separate records, joined by “and”; a condition that tells them apart may be missing. Equal values may be shown once.

Tests used:
[1] = system: BFP transgene in 293T cells; assay: ssODN-based BFP-to-GFP HR assay; type: cell-based; conditions: AAV-DJ transduced 293T cells, Cas9 RNP, 4 d, versus i53-DM
Text: FIG. 11. 53BP1 inhibition by i53 stimulates ssODN-mediated homologous recombination. FIG. 11A, Schematic of the BFP-to-GFP conversion assay. Cells carrying a stably integrated BFP transgene are transfected with Cas9 ribonucleoproteins (RNPs) programmed with a gRNA against the BFP coding sequence along with an ssODN that converts 3 nucleotides of BFP into those that produce a GFP protein upon successful HR-mediated repair. FIG. 11B-C, 293T cells that were first transduced with AAV-DJ1 vectors coding for i53-DM or i53 with the BFP transgene were nucleofected with Cas9 RNPs and optimal (b) and suboptimal (c) ssODN repair donors that convert BFP to GFP. 4 d after nucleofection, GFP fluorescence was monitored by flow cytometry. […] 3 d post-nucleofection, genomic DNA was isolated and the presence of the Pcil restriction fragment length polymorphism (RFLP) was determined by restriction digest on PCR-amplified genomic DNA. […]
The BFP-to-GFP assay was performed essentially as described Richardson CD et al, Nat Biotechnol. […] After 4 days, BFP and GFP fluorescence were measured by flow cytometry on a BD Fortessa, and analyzed with FlowJo v10 software. […]

TP53BP1 = molecular target: T1, TP53BP1 (Homo sapiens, UniProt Q12888); assay: Flag IP-MS of i53/i53-DM baits: prey TP53BP1; type: binding
T1 construct: endogenous in cells; host or cells: HEK293 Flp-In/T-REx
Procedure: (§1) Following immunoprecipitation of Flag-tagged i53 and i-53-DM from HEK293 Flp-In/T-REx cells, peptides were identified using LC-MS/MS. Proteins were digested in solution with trypsin (Sigma, T7575-1KT) and dried to completeness. For LC-MS/MS analysis, peptides were reconstituted in 5% formic acid and loaded onto a 12-15 cm fused silica column with pulled tip packed in-house with 3.5 μm Zorbax C18 (Agilent Technologies, Calif., USA).
(§2) i53 and i53-DM precipitates were analyzed using an LTQ (Thermo Scientific) coupled to an Agilent 1100 Series HPLC (Agilent Technologies). Peptides were eluted from the column using a 90 min period cycle with a linear gradient from 0% to 40% ACN in 0.1% formic acid. Tandem MS spectra were acquired in a data-dependent mode for the top 5 (LTQ) most abundant ions using collision-induced dissociation. Acquired spectra were searched against the human Refseq_V53 database using Mascot (Matrix Science).
(§3) 293T Flp-In/T-Rex cell lines were generated that expressed Flag-tagged i53 or i53-DM under the control of a tetracycline-inducible promoter as previously described. Nine IP-MS experiments were analyzed (3 biological replicate IPs each for control i53- and i53-DM expressing cell lines). The interacting proteins were identified by MASCOT to identify high-confidence interactors for i53. […]

CFL1 = molecular target: T2, CFL1 (Homo sapiens, UniProt P23528); assay: Flag IP-MS of i53/i53-DM baits: prey CFL1; type: binding; conditions: 293T Flp-In/T-Rex extracts, LC-MS/MS, one column per replicate IP
T2 construct: endogenous in cells; host or cells: HEK293 Flp-In/T-REx
Procedure: as §1, §2, §3

CAPZA2 = molecular target: T3, CAPZA2 (Homo sapiens, UniProt P47755); assay: Flag IP-MS of i53/i53-DM baits: prey CAPZA2; type: binding; conditions: 293T Flp-In/T-Rex extracts, LC-MS/MS, one column per replicate IP
T3 construct: endogenous in cells; host or cells: HEK293 Flp-In/T-REx
Procedure: as §1, §2, §3

TXNDC12 = molecular target: T4, TXNDC12 (Homo sapiens, UniProt O95881); assay: Flag IP-MS of i53/i53-DM baits: prey TXNDC12; type: binding; conditions: 293T Flp-In/T-Rex extracts, LC-MS/MS, one column per replicate IP
T4 construct: endogenous in cells; host or cells: HEK293 Flp-In/T-REx
Procedure: as §1, §2, §3

RPL17 = molecular target: T5, RPL17 (Homo sapiens, UniProt P18621); assay: Flag IP-MS of i53/i53-DM baits: prey RPL17; type: binding; conditions: 293T Flp-In/T-Rex extracts, LC-MS/MS, one column per replicate IP
T5 construct: endogenous in cells; host or cells: HEK293 Flp-In/T-REx
Procedure: as §1, §2, §3

VPS13C = molecular target: T6, VPS13C (Homo sapiens, UniProt Q709C8); assay: Flag IP-MS of i53/i53-DM baits: prey VPS13C; type: binding; conditions: 293T Flp-In/T-Rex extracts, LC-MS/MS, one column per replicate IP
T6 construct: endogenous in cells; host or cells: HEK293 Flp-In/T-REx cells
Procedure: as §1, §2, §3

WDR96 = molecular target: T7, WDR96 (Homo sapiens, UniProt Q8NDM7); assay: Flag IP-MS of i53/i53-DM baits: prey WDR96; type: binding; conditions: 293T Flp-In/T-Rex extracts, LC-MS/MS, one column per replicate IP
T7 construct: Following immunoprecipitation of Flag-tagged i53 and i-53-DM from HEK293 Flp-In/T-REx cells, peptides were identified using LC-MS/MS; endogenous in cells; host or cells: HEK293 Flp-In/T-REx cells
Procedure: as §1, §2, §3

RPL29 = molecular target: T8, RPL29 (Homo sapiens, UniProt P47914); assay: Flag IP-MS of i53/i53-DM baits: prey RPL29; type: binding; conditions: 293T Flp-In/T-Rex extracts, LC-MS/MS, one column per replicate IP
T8 construct: endogenous in cells; host or cells: HEK293 Flp-In/T-REx cells
Procedure: as §1, §2, §3

INTS3 = molecular target: T9, INTS3 (Homo sapiens, UniProt Q68E01); assay: Flag IP-MS of i53/i53-DM baits: prey INTS3; type: binding; conditions: 293T Flp-In/T-Rex extracts, LC-MS/MS, one column per replicate IP
T9 construct: Following immunoprecipitation of Flag-tagged i53 and i-53-DM from HEK293 Flp-In/T-REx cells, peptides were identified using LC-MS/MS; endogenous in cells; host or cells: HEK293 Flp-In/T-REx cells
Procedure: as §1, §2, §3

RAB34 = assay: Flag IP-MS of i53/i53-DM baits: prey RAB34; type: binding, human; conditions: 293T Flp-In/T-Rex extracts, LC-MS/MS, one column per replicate IP
Procedure: as §1, §2, §3

T1 sequence (Q12888 whole entry): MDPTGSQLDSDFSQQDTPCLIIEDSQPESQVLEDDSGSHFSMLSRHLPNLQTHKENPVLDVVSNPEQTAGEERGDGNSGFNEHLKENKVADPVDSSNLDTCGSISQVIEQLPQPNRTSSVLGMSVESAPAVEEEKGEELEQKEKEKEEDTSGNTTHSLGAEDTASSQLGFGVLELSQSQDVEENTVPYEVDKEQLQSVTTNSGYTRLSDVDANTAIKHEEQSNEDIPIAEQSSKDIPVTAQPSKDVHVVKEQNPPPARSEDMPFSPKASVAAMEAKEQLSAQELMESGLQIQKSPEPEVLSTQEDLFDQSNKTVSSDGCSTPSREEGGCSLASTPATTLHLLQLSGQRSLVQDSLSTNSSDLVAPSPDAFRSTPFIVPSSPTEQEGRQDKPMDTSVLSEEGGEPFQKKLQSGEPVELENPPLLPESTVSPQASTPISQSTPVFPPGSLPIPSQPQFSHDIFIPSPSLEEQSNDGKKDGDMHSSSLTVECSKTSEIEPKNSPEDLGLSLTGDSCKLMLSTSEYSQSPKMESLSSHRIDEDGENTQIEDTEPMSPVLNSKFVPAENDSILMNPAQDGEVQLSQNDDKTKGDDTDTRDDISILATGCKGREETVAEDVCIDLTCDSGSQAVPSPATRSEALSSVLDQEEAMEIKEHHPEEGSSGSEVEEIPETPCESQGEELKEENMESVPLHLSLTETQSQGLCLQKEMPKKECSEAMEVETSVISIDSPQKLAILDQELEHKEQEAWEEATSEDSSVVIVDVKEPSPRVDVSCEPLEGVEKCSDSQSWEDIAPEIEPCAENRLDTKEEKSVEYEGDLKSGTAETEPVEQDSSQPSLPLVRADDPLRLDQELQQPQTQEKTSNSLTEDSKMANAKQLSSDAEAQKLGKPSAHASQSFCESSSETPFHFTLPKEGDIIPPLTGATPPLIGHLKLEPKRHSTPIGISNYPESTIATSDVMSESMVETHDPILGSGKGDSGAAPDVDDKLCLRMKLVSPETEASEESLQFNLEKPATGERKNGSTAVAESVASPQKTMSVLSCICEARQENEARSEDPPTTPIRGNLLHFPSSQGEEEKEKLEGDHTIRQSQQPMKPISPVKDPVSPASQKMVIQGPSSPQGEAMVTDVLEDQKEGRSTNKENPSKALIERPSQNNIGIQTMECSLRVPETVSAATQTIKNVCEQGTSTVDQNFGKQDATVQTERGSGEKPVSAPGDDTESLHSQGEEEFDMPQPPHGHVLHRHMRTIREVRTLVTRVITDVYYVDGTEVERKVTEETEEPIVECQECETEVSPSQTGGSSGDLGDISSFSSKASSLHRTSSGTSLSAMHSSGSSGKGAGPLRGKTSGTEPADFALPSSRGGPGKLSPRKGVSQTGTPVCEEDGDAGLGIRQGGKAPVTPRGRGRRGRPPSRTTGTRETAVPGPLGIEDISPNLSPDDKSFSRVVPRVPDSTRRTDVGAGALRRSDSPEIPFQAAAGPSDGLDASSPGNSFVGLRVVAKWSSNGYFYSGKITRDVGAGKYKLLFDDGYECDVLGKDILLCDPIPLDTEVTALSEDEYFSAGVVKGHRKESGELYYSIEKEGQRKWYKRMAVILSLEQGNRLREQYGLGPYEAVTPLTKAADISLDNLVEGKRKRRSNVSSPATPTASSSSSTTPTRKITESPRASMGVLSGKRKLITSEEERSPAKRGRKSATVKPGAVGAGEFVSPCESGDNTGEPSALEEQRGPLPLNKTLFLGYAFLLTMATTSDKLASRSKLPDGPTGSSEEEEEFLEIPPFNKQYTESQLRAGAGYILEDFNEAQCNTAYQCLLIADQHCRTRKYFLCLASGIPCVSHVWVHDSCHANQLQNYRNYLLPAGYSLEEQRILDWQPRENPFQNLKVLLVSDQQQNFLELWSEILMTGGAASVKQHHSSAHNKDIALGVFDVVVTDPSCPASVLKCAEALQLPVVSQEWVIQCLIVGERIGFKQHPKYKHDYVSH
T9 sequence (Q68E01 whole entry): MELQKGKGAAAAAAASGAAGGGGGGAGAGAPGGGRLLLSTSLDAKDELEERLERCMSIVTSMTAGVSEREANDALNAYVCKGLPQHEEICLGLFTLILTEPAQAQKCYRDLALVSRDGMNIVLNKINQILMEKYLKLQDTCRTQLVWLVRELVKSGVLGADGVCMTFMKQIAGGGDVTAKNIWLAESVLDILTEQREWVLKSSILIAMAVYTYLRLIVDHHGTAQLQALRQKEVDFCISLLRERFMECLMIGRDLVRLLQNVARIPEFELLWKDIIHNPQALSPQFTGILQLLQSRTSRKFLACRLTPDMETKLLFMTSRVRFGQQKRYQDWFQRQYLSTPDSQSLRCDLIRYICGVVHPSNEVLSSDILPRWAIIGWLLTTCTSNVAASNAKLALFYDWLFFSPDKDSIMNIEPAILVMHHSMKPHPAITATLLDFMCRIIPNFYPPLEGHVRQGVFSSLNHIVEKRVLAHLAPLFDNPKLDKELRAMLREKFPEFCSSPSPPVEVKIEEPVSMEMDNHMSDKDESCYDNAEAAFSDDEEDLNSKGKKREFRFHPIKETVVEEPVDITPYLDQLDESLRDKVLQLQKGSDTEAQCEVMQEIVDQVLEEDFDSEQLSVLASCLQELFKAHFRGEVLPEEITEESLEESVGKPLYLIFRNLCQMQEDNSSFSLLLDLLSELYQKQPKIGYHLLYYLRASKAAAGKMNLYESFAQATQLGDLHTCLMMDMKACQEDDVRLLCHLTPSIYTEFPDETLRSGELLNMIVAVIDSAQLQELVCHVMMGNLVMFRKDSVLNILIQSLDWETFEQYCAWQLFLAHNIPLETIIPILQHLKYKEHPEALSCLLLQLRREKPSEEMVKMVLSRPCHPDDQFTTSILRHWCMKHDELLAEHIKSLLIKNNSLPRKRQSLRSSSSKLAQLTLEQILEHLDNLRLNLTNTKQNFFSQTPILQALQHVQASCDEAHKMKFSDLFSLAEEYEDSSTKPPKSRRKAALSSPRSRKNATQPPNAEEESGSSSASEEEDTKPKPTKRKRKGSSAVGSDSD
T2 sequence (P23528 whole entry): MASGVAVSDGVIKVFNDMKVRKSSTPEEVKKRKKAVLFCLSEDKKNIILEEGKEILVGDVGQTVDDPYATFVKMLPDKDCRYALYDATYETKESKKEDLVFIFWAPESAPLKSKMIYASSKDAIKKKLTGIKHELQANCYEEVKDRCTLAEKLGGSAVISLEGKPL
T4 sequence (O95881 27-172): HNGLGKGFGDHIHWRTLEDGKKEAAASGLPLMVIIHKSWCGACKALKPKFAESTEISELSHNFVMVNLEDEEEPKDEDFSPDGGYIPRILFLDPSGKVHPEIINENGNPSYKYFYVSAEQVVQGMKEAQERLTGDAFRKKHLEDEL
T7 sequence (Q8NDM7 whole entry): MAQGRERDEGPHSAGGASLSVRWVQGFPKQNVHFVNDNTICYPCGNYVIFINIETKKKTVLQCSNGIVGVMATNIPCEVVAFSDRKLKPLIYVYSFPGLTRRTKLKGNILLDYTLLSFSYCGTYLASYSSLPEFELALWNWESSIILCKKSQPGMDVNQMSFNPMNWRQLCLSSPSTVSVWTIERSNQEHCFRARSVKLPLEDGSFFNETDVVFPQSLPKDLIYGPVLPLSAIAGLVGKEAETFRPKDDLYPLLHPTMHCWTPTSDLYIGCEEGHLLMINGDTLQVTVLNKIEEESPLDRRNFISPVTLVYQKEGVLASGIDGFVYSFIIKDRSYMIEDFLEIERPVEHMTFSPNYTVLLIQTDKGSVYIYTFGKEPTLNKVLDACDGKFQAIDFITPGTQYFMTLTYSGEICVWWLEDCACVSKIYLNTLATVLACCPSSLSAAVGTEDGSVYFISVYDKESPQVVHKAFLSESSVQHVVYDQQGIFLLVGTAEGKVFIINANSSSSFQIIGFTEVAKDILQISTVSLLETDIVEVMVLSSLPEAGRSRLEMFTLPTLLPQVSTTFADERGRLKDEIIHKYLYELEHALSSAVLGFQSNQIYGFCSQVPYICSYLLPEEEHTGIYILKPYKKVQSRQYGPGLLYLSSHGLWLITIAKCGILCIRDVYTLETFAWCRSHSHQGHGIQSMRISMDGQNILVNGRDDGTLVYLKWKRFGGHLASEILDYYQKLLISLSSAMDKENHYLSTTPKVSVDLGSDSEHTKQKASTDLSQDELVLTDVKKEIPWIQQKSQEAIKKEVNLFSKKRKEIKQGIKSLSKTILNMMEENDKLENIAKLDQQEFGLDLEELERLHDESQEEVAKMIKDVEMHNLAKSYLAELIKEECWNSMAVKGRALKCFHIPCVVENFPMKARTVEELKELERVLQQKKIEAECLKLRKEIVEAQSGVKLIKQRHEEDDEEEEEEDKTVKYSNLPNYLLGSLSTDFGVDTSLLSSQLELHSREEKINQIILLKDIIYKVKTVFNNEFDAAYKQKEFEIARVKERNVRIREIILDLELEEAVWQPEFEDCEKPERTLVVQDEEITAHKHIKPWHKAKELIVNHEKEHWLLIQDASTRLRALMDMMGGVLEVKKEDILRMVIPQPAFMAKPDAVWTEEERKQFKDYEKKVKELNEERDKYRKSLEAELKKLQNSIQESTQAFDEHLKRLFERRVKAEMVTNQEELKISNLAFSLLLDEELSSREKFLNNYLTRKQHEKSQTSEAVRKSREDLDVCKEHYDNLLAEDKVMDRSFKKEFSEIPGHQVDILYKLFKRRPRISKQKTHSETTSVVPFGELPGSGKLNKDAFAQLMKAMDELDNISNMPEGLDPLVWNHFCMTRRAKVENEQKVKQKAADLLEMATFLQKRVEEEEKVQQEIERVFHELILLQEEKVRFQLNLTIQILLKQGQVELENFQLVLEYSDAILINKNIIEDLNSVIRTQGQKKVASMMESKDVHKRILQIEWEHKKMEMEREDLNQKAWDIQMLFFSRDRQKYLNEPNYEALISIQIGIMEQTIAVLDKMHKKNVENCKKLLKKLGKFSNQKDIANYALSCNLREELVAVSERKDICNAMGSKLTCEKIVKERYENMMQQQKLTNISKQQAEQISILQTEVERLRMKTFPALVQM

Total peptides, TP53BP1 (TP53BP1; Flag IP, 293T Flp-In/T-Rex extracts, LC-MS/MS, one column per replicate IP, listed as Flag-i53)	Selectivity of binding to cellular proteins (IP-MS conclusion) (TP53BP1; three biological replicate IPs, interactors in two or more experiments)	Total peptides, CFL1 (CFL1)	Total peptides, CAPZA2 (CAPZA2)	Total peptides, TXNDC12 (TXNDC12)	Total peptides, RPL17 (RPL17)	Total peptides, VPS13C (VPS13C)	Total peptides, WDR96 (WDR96)	Total peptides, RPL29 (RPL29)	Total peptides, INTS3 (INTS3)	Substance	Stimulation of HDR by ssODNs, BFP-to-GFP conversion [1]	Total peptides, RAB34 (RAB34)
66 and 38 and 21	highly selective binder of 53BP1	6	7							i53: UbvG08 with C-terminal di-glycine removed and I44A mutation; genetically encoded inhibitor of 53BP1	1.3-1.4 fold	
				2	5	5	4	3	3	i53-DM: 53BP1-binding deficient mutant of i53 (P69L, L70V)		2
